The target in assay [1] is T1, LexA-RXR (bacterial; human, UniProt P0A7C2 1-202; P19793 196-462, limits assumed).
T1 construct: also called Lex fusion RXR
T1 sequence (looked up): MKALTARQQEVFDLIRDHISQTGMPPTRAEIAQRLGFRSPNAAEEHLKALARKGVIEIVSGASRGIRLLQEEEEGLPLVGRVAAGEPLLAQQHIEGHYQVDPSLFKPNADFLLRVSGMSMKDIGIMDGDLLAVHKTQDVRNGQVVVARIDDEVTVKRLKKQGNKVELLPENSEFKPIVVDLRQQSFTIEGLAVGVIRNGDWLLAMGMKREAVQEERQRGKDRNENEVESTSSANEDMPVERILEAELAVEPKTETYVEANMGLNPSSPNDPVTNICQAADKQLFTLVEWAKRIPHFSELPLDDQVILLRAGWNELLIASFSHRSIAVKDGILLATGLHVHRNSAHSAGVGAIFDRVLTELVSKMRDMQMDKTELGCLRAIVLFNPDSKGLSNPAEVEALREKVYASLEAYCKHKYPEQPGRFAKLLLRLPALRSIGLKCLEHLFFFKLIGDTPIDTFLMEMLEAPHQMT
Put plainly: yeast interaction trap screen; clones showing specific interaction with LexA-RXR; all six clones start at amino acid 132. The method, then:
(§1) From 3×10^6 primary yeast transformants, a number of β-gal expressing colonies were identified in two independent screens carried out in the presence or absence of 9-cis-RA. Since expression of the B42-cDNA fusion proteins was induced by growth on galactose, candidates obtained from each condition were tested for galactose-dependent expression of both β-gal and LEU2, in the presence or absence of 9-cis-RA, using appropriate indicator plates (see below).
(§2) Candidates showing specific interaction with LexA-RXR were sequenced across the B42 fusion junction using an appropriate vector primer, and additional sequence was determined. The deduced amino acid sequences were compared to those in the GenBank and EMBL databases using the GCG (Devereux et al., Nucleic Acids Res. 12:387–395, 1984) and BLAST programs (Altschul et al., J. Mol. Biol. 215:403–410, 1990). […] All of these clones included intact ligand binding domains, as expected from the fact that the major heterodimerization function lies within that domain. For PPAR (Issemann et al., Nature 347:645–650, 1990), three clones started at amino acid 84, just N-terminal to the DNA binding (C) domain, four others started at 91, within the C domain, and one at 170, just past the C domain. For RAR (Leroy et al., EMBO J. 10:59–69), all six clones started at amino acid 132, within the C domain.

In a further assay the target is T2, Human RXRα protein (human, UniProt P19793 1-462, limits assumed).
T2 construct: Used in the gel shifts
T2 sequence (looked up): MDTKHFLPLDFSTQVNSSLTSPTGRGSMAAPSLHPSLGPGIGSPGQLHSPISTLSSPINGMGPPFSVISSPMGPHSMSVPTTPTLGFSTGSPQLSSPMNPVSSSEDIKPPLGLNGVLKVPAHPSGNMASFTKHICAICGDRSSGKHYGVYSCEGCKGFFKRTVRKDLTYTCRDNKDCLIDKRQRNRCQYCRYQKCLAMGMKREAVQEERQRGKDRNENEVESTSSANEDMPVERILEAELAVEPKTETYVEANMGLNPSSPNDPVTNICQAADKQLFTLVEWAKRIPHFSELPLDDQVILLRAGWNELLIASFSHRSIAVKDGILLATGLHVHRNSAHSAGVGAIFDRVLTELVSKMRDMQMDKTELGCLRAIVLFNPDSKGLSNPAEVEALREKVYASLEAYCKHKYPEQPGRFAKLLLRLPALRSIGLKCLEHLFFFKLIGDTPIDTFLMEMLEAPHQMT
The experiment in a line: gel shift of in vitro translated RIP with E. coli-expressed RXRα on labeled βRARE; the complex with RXR is seen on DNA. The method, then: The binding of the RIP14-2 isoform to this element was weaker than that of RIP14-1 when similar amounts of RIP14 proteins were used. […] Several other DNA elements were tested in the gel shift assay, including the retinoic acid response element from the promoter of the human RARβ2 isoform (βRARE) (de The et al., Nature 343:177–180, 1990). In the presence of RXR, the βRARE was bound by both the RIP14 isoforms and RIP15 (FIG. 8, panel B). Again, the binding of the RIP14-2/RXR heterodimer was weaker than the RIP14-1/RXR heterodimer when a similar amount of RIP14 proteins were used (FIG. 8, panel B, lanes 10 and 14).
RIP14 and RIP15 proteins were produced by in vitro translation (Promega TNT, Madison, Wis.) using expression vectors containing the RIP genes following a T7 promoter. To generate full length RIP14-2 constructs, fragments from RIP14-1 clone No. 15 containing regions from the middle of the E domain to the 3' end replaced the corresponding regions of RIP14-2 Clones No. 3 or 12, respectively. Sequences were confirmed by DNA sequencing. Human RXRα protein was expressed in E. coli using a bacterial expression vector based on the bacteriophage T7 promoter (Carter et al., Mol. Cell. Biol. in press., 1994). […]
For orientation: A gel shift assay detects complexes by their altered migration in electrophoresis.

In assay [2] the target is T1, LexA-RXR. Put plainly: yeast interaction trap screen; clones showing specific interaction with LexA-RXR; one clone starting at amino acid 170. How it is done: as §1, §2
The target in a further assay is T3, LexA-TR (bacterial; rat, UniProt P0A7C2 1-202; P18113 170-461, limits assumed).
T3 construct: also called Lex fusion TR
T3 sequence (looked up): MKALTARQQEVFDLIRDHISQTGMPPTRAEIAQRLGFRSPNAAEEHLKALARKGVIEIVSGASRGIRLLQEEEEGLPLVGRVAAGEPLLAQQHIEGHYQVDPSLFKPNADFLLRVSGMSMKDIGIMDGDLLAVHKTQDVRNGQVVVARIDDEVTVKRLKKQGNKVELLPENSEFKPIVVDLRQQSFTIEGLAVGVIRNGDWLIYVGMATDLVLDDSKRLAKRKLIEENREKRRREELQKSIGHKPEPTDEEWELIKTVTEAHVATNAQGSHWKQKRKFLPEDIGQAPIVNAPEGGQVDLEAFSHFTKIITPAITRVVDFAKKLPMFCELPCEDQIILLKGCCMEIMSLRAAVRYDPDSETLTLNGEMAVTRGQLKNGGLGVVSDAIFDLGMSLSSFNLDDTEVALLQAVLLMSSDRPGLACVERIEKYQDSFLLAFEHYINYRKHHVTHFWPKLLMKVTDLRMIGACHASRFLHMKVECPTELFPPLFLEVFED
Put plainly: yeast interaction trap, X-gal plate, with T3; W = white (no interaction). The method, then:
(§3) Interactions of the RIP clones with other superfamily members, including RAR, TR, the glucocorticoid receptor (GR), and MB67, an orphan isolated in this lab (Baes et al., Mol. Cell. Biol. 14:1544–1552, 1994) were also tested using a series of appropriate LexA fusions. In particular, the experiments shown in Table 1 were carried out as follows. Yeast transformants containing a lacZ reporter gene under the control of LexA binding sites and the indicated B42- and Lex-fusion protein expression vectors were transferred onto galactose-Ura⁻His⁻Trp⁻ plates containing X-gal and incubated for two days. Relative levels of β-galactosidase activity were estimated and are depicted as follows: B, blue (strong interaction); LB, light blue (weak interaction); W, white (no interaction); nt, not tested. At least three separate colonies were tested on the same plate for interaction. To test the effects of ligands, 100 µl of a 10^-6M solution of the appropriate ligand was spread onto plates just before inoculation of cells (9-cis-RA for RXR, T3 for TR, and all-trans-RA for RAR). For B42-PPAR, the plasmid isolated from the screening was used. Both full length and truncated RAR fusions to LexA were tested with identical results for all the B42 fusions except B42-110, which was tested only with the full length fusion.

For a further assay, the target named is T4, LexA-MB67 (bacterial, UniProt P0A7C2 1-202; Q14994 76-348, limits assumed).
T4 construct: Made by PCR, 'analogous' to LexA-RXR and LexA-TR; also called Lex fusion MB67
T4 sequence (looked up): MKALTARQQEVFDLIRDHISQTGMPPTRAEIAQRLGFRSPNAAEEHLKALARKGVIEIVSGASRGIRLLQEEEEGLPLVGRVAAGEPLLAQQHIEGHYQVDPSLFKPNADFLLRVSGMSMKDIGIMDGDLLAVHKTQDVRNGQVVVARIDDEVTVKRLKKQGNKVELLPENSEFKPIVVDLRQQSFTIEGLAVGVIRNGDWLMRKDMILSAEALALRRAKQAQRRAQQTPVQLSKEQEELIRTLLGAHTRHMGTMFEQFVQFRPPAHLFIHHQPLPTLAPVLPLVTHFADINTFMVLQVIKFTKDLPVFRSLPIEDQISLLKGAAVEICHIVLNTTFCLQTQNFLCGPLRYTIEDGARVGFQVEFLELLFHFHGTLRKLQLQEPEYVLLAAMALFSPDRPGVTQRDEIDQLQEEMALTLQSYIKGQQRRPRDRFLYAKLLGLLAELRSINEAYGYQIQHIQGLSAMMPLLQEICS
The experiment in a line: yeast interaction trap, X-gal plate; W = white (no interaction). The method, then: as §3

B1: B42-RAR (other, mouse, UniProt P11416 132-462, looked up, not shown: large carriers)
chain: INKVTRNRCQYCRLQKCFDVGMSKESVRNDRNKKKKEAPKPECSESYTLTPEVGELIEKVRKAHQETFPALCQLGKYTTNNSSEQRVSLDIDLWDKFSELSTKCIIKTVEFAKQLPGFTTLTIADQITLLKAACLDILILRICTRYTPEQDTMTFSDGLTLNRTQMHNAGFGPLTDLVFAFANQLLPLEMDDAETGLLSAICLICGDRQDLEQPDKVDMLQEPLLEALKVYVRKRRPSRPHMFPKMLMKITDLRSISAKGAERVITLKMEIPGSMPPLIQEMLENSEGLDTLSGQSGGGTRDGGGLAPPPGSCSPSLSPSSHRSSPATQSP
notes: range 132-C-terminus; All six isolated clones start at amino acid 132; also called RARα (six clones)
Consider B1, for which the binding result in the assay with LexA-RXR [1] is listed as “binds”.

B2: RIP15 (receptor)
chain: MSSPTSSLDTPVPGNGSPQPSTSATSPTIKEEGQETDPPPGSEGSSSAYIVVILEPEDEPERKRKKGPAPKMLGHELCRVCGDKASGFHYNVLSCEGCKGFFRRSVVHGGAGRYACRGSGTCQMDAFMRRKCQLCRLRKCKEAGMREQCVLSEEQIRKKRIQKQQQQQPPPPSEPAASSSGRPAASPGTSEASSQGSGEGEGIQLTAAQELMIQQLVAAQLQCNKRSFSDQPKVTPWPLGADPQSRDARQQRFAHFTELAIISVQEIVDFAKQVPGFLQLGREDQIALLKASTIEIMLLQTARRYNHETECITFLKDFTYSKDDFHRAGLQVEFINPIFEFSRAMRRLGLDDAEYALLIAINIFSADRPNVQEPSRVEALQQPYVEALLSYTRIKRPQDQLRFPRMLMKLVSLRTLSSVHSEQVFALRLQDKKLPPLLSEIWDVHE
notes: Intact 446 amino acid protein; It was translated in vitro for gel shifts and expressed from a CDM vector in HepG2 cells
As to B2, the binding result in the assay with Human RXRα protein is listed as “binds”.

B3: B42-PPAR clone starting at amino acid 170 (other, mouse, UniProt P23204 170-468, looked up, not shown: large carriers)
chain: AIRFGRMPRSEKAKLKAEILTCEHDLKDSETADLKSLGKRIHEAYLKNFNMNKVKARVILAGKTSNNPPFVIHDMETLCMAEKTLVAKMVANGVEDKEAEVRFFHCCQCMSVETVTELTEFAKAIPGFANLDLNDQVTLLKYGVYEAIFTMLSSLMNKDGMLIAYGNGFITREFLKNLRKPFCDIMEPKFDFAMKFNALELDDSDISLFVAAIICCGDRPGLLNIGYIEKLQEGIVHVLKLHLQSNHPDDTFLFPKLLQKMVDLRQLVTEHAQLVQVIKKTESDAALHPLLQEIYRDMY
notes: range 170-C-terminus; Only the start is stated; also called PPAR (one clone)
On to B3, for which the binding result in the assay with LexA-RXR [2] was “binds”.

B4: B42-RIP15 (other, not shown: large carriers)
chain: EEQIRKKRIQKQQQQQPPPPSEPAASSSGRPAASPGTSEASSQGSGEGEGIQLTAAQELMIQQLVAAQLQCNKRSFSDQPKVTPWPLGADPQSRDARQQRFAHFTELAIISVQEIVDFAKQVPGFLQLGREDQIALLKASTIEIMLLQTARRYNHETECITFLKDFTYSKDDFHRAGLQVEFINPIFEFSRAMRRLGLDDAEYALLIAINIFSADRPNVQEPSRVEALQQPYVEALLSYTRIKRPQDQLRFPRMLMKLVSLRTLSSVHSEQVFALRLQDKKLPPLLSEIWDVHE
notes: Original yeast clone; Its B42 fusion junction is near the beginning of the hinge (D) domain, with no residue number stated; also called B42 fusion 15; RIP15 chimera
Consider B4, for which the binding result with LexA-TR and with LexA-MB67 was “no binding” throughout.
